We go through 1 substance from publication PMC2114528.

Where two headings read alike, the source gives them in different places.

The target of experiment [1] is ECGF receptor (Mr 150,000 polypeptide) on LEII cells (mouse (endogenous in LEII cells)) (UniProt P16092). The experiment is described as follows: radioligand binding.
For experiment [2] the target is unchanged. Briefly: radioligand binding. The source holds these as a separate data set.

The Kd is a measure of binding affinity in units of concentration. Low readings indicate tighter binding, high ones weaker binding.

Sequence of UniProt P16092 (P16092 22-822): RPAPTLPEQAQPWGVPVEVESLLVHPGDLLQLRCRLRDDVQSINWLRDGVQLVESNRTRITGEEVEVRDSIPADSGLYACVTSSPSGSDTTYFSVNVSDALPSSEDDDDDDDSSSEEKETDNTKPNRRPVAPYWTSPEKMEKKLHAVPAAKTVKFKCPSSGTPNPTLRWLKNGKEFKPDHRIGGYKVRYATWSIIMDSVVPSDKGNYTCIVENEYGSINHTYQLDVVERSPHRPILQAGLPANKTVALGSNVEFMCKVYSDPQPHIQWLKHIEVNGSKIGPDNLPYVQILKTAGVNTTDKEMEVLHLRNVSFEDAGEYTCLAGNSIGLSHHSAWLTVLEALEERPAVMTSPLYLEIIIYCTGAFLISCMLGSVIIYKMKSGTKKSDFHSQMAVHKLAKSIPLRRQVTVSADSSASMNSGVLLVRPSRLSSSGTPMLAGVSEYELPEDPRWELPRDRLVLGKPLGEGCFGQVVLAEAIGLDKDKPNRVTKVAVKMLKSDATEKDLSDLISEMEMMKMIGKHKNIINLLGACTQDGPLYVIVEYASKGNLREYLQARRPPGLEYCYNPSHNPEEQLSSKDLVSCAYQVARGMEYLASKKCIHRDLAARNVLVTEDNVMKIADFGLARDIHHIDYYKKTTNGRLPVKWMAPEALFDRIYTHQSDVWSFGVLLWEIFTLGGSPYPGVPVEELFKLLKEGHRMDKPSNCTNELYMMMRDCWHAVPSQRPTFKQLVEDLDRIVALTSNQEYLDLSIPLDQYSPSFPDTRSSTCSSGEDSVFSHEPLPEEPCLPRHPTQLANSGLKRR

With “alpha-endothelial cell growth factor (ligand)”, the values for the Kd in experiment [1] and in experiment [2] were 0.2 nM and 0.25 nM, respectively.
